{"source": "patent US20120288536", "about": "“Stabilized Stat3 Decoy Oligonucleotides And Uses Therefor” (Carnegie Melton, published 2012)", "binders": {"B1": {"name": "longer 31-mer hSIE duplex (dsDNA)", "DNA 1": "AGCTTGTCGACATTTCCCGTAAATCGTCGAG", "DNA 2": "CTCGACGATTTACGGGAAATGTCGACAAGCT"}, "B2": {"name": "Mutant 3 (mutant control decoy) (dsDNA)", "DNA 1": "CATTTCCCTTAAATC", "DNA 2": "GATTTAAGGGAAATG"}, "B3": {"name": "parent STAT3 decoy (PTO) (dsDNA)", "DNA 1": "CATTTCCCGTAAATC", "DNA 2": "GATTTACGGGAAATG", "modifications": "PS first three and last three bases of both strands"}, "B4": {"name": "STAT3 decoy (hSIE) (dsDNA)", "DNA 1": "CATTTCCCGTAAATC", "DNA 2": "GATTTACGGGAAATG"}, "B5": {"name": "DN4 (structured_DNA)", "DNA": "CATTTCCCGTAAATCGAAAGATTTACGGGAAATG", "modifications": "PS x3 at 5' end of one strand and 3' end of the other (Table 2: 5' and 3' ends of both strands)"}}, "key": {"STAT3 [1]": {"biological_target": "T1, STAT3 (UniProt P40763 P40763:1-770)", "T1 sequence (P40763 whole entry, one chain of several)": "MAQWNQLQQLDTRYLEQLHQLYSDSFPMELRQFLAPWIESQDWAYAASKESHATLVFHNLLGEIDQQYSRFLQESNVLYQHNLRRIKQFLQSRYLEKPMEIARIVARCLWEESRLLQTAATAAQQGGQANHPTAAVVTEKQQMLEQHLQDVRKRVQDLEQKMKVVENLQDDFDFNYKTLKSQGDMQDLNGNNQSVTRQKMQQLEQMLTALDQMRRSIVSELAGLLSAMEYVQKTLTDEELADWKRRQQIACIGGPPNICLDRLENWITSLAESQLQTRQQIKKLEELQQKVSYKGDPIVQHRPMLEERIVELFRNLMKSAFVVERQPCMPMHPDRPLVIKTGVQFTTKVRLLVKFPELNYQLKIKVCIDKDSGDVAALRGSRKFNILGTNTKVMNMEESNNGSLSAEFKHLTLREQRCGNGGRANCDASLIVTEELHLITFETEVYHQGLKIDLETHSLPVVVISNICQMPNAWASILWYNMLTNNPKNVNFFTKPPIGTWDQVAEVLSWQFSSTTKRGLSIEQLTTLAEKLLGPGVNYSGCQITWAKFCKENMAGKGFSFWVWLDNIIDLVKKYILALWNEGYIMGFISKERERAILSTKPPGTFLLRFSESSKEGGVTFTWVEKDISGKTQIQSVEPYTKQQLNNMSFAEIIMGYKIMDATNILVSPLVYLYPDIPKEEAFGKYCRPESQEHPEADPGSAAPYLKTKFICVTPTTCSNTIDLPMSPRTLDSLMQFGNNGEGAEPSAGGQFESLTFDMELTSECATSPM", "assay": "EMSA; longer sequence effective in blocking STAT3 activation", "settings": "chain copies: 2 inferred"}, "STAT3 [2]": {"biological_target": "T1, STAT3", "assay": "EMSA", "settings": "chain copies: 2 inferred"}, "[3]": {"biological_target": "T2, pSTAT3 (tyrosine-phosphorylated STAT3) (UniProt P40763 P40763:1-770)", "T2 sequence (P40763 whole entry, one chain of several)": "as above", "assay": "SPR; Langmuir 1:1, 4 C, 20 mM HEPES pH 7.0, 200 mM NaCl, 10 mM MgCl2; replicate 1.15E-7 (Table 5A), 3.20E-7 (Table 5B); Table 3 1.29E-7 to 9.91E-7", "settings": "tags: recombinant, immobilized on CM5 chip for SPR, chain copies: 2 inferred", "description": "(§1) To more quantitatively assess the affinity of the decoy for pSTAT3 protein, the binding affinity by surface plasmon resonance (SPR) was determined. Solutions of STAT3 decoy were prepared at multiple concentrations and passed over recombinant tyrosine phosphorylated STAT3 immobilized in a sensor chip.\n(§2) The amount of parent STAT3 decoy and modified STAT3 decoys bound to recombinant pSTAT3 increased directly with increasing concentrations of STAT3 decoy in test solutions. Data analysis by fitting the sensorgrams to a Langmuir 1:1 model of binding yielded kinetic and affinity values (Table 4).\n(§3) To determine the specific binding affinities of the parent and the modified decoys (DN4 and DS18) to the pSTAT3 protein, surface plasmon resonance (SPR) analyses were performed using a BIAcore 3000 instrument (GE Healthcare, Piscataway, N.J.). All buffer and sample solutions were filtered and degassed prior to each run, with more optimal pH and instrument parameters determined empirically. The pSTAT3 protein at 10 μg/ml in 10 mM sodium acetate buffer (pH 4.0), was immobilized on freshly activated chip surface. […] Binding of STAT3 decoy, DN4 and DS18 to pSTAT3 protein were determined at several concentrations such as […] 0.625 μM, 1.25 μM, 2.5 μM 5.0 μM and 10.0 μM of analyte solutions, at a flow rate of 30 μL/min in a running buffer (20 mM HEPES, pH 7.0, 200 mM NaCl, 10 mM MgCl₂). […]"}, "[4]": {"biological_target": "T2, pSTAT3 (tyrosine-phosphorylated STAT3)", "assay": "SPR; Langmuir 1:1, 4 C, 20 mM HEPES pH 7.0, 200 mM NaCl, 10 mM MgCl2", "settings": "tags: recombinant, immobilized on CM5 chip for SPR, chain copies: 2 inferred, hairpin, GAAA loop linking the strands", "description": "as §1, §2, §3"}}}
{"binder": "B1", "values": [{"measurement": "binding result", "setting": "STAT3 [1]", "value": "binds"}]}
{"binder": "B2", "values": [{"measurement": "binding result", "setting": "STAT3 [2]", "value": "no binding"}]}
{"binder": "B3", "values": [{"measurement": "Kd", "setting": "[3]", "value": 122, "unit": "nM"}]}
{"binder": "B4", "values": [{"measurement": "binding result", "setting": "STAT3 [2]", "value": "binds"}]}
{"binder": "B5", "values": [{"measurement": "Kd", "setting": "[4]", "value": 182, "unit": "nM"}]}
